# Data taken from patent US6518412B1, “Gene therapy approaches to supply apolipoprotein A-I agonists and their use to treat dyslipidemic disorders” (priority 1997, dated 2003).
# Columns and labels:
# Assay type in all cases: physicochemical
# [1] = Circular dichroism, degree of helicity (free, SUVs, micelles, TFE)
# Protocol: Far UV circular dichroism spectra were recorded between 190 and 260 nm (in 0.5 nm or 0.2 nm increments) with a AVIV62DS spectrometer (AVIV Associates, Lakewood, N.J., USA) equipped with a thermoelectric cell holder and sample changer. The instrument was calibrated with (+)-10-[…]. Between one and three scans were collected for each sample, using 10 cm, 5 cm, 1 cm and 0.1 cm path length quartz Suprasil cells, respectively, for peptide concentrations of 10^−7 M to 10^−4 M. The bandwidth was fixed at 1.5 nm and the scan speed to is per wavelength step. The reported data are the mean of at least 2 or 3 independent measurements.
# After background substraction, spectra were converted to molar ellipticity (θ) per residue in deg. […] dmol^−1. The peptide concentration was determined by amino acid analysis and also by absorption spectrometry on a Perkin Elmer Lambda 17 UV/Visible spectrophotometer when the peptide contained a chromophore (tryptophane, dansyl, naphtylalanine). […]
# All spectra were recorded at 37° C. The stability of peptide 210 (SEQ ID NO:210) as a function of temperature (both free in buffer and in micelles) was determined by recording spectra at a series of different temperatures.
# The degree of helicity of peptide 210 (SEQ ID NO:210) as a function of concentration was also determined.
# The degree of helicity of the peptides in the various conditions was determined from the mean residue ellipticity at 222 nm (Chen et al., 1974, Biochemistry 13:3350-3359) or by comparing the CD spectra obtained to reference spectra available on databases (16 helical reference spectra from Provencher & Glockner, 1981, Biochemistry 20:33-37; denatured protein reference spectra from Venyaminov et al., 1993, Anal. Biochem. 214:17-24) using the CONTIN curve-fitting algorithm version 2DP, CD-1 pack (August 1982) (Provencher, 1982, Comput. Phys. Commun. 27:213-227, 229-242). Acceptable fit was determined using the statistical analysis methodology provided by the CONTIN algorithm. […]
# [2] = NMR analysis of peptide structure; conditions: 25% TFE at 295 K
# Protocol: Samples were prepared by dissolving 5 mg of peptide in 90% H2O/10% D2O containing trace amounts of 2,2-Dimethyl-2-sila-5-pentane sulfonate (DSS) as an internal chemical shift reference. Some of the samples contained trifluoroethanol (TFE) (expressed as % vol). The total sample volume was 500 μl and the concentration of peptide was approximately 5 mM.
# ^1H NMR spectra were acquired at 500 MHz using a Bruker DRX500 spectrometer equipped with a B-VT2000 temperature control unit. One and two-dimensional experiments were recorded using standard pulse sequences. (Two Dimensional NMR Spectroscopy, Eds. W. R. Croasmun and RMK Carlson, 1994, VCH Publishers, New York, USA). […] Two-dimensional experiments were carried out in the phase sensitive mode using time proportional phase incrementation (TPPI) and a spectral width of 6000 Hz in both dimensions. Typically, 40 scans were co-added for 400 t1 increments with 2048 data points. […]
# Complete proton resonance assignments were obtained by applying the sequential assignment technique using DQFCOSY, TOCSY and NOESY spectra as described in the literature (Wuthrich, NMR of Proteins and Nucleic Acids, 1986, John Wiley & Sons, New York, USA). Secondary chemical shifts were calculated for HN and Ha protons by subtracting the tabulated random coil chemical shifts (Wishart and Sykes, 1994, Method. Enz. 239:363-392) from the corresponding experimental values.
# [3] = Superose 6 gel filtration chromatography of peptide-lipid complexes; conditions: 1 mg peptide and 3 mgs DPPC, colyophilized, 0.9% NaCl
# Protocol: One mg of peptide 149 ([…]; SEQ ID NO:149) was dissolved in 250 μl HPLC grade methanol (Perkin Elmer) in a one ml clear glass vial with cap (Waters #WAT025054). Dissolving of the peptide was aided by occasional vortexing over a period of 10 minutes at room temperature. To this mixture an aliquot containing 3 mg dipalmitoyl-phosphatidyl-choline (DPPC; Avanti Polar Lipids, 99% Purity, product #850355) from a 100 mg/ml stock solution in methanol was added. The volume of the mixture was brought to 400 μl by addition of methanol, and the mixture was further vortexed intermittently for a period of 10 minutes at room temperature. To the tube 200 μl of xylene (Sigma-Aldrich 99% pure, HPLC-grade) was added and the tubes were vortexed for 10 seconds. […]
# Peptide-phospholipid complexes containing peptide 149 (SEQ ID NO:149) were prepared by colyophilization as described above. […] The chromatography was monitored by absorbance or scattering of light of wavelength 280 nm. […] The vast majority of both phospholipid and UV absorbance were recovered together in a few fractions with peaks at approximately 15.8 mls. […]
# For comparison, a separate chromatogram of 20 μl of human HDL2 was run under the same conditions and using the same column as the peptide 149 complexes. […] The column eluate was monitored by absorbance or scattering of light of wavelength 254 nm. […]
Sequence,stability of α-helical structure with temperature [1],helicity in the presence of TFE ([1]; TFE),helicity ([1]; in micelles),conformation from Hα secondary shifts [2],Stokes' diameter [3]
PVLDLFRELLEELKQKLK [peptide 210],completely stable,increases,63%,highly helical conformation,–
PVLELFENLWERLLDALQKKLK [peptide 149],–,–,–,–,87 Angstroms
